Assay results as given in patent US20240294623A1 (SCHOLAR ROCK, published 2024).

Tests used:
[1] = target: T1, hGARP-proTGFβ1 (human, UniProt Q14392 18-627; P01137 30-390, limits assumed); experiment: SPR (Biacore), Fab
T1 construct: LLC as m1; Same id used for the cell-surface complex in reporter assays; also called human GARP-proTGFβ1 complex; GARP-ProTGFb1
Procedure: (§1) Surface plasmon resonance (SPR) was used to measure binding kinetics using a BIACORE® system. […] Experiments were carried out with eight types of LLCs, namely, hLTBP1-proTGFβ1, mLTBP1-proTGFβ1, hLTBP3-proTGFβ1, mLTBP3-proTGFβ1, hGARP-proTGFβ1, mGARP-proTGFβ1, hLRRC33-proTGFβ1 and mLRRC33-proTGFβ1.
(§2) In vitro binding kinetics (on/off rates) were measured in Biacore-based assays and affinities were determined against all four known LLCs using both human and murine counterparts for each. Based on the association rate and dissociation rate, KD was calculated for each. In addition, relative affinities, as compared to the reference antibody as a benchmark, were calculated and expressed as “fold difference” relative to the reference antibody.
(§3) A BIACORE® system was employed to determine the monovalent binding affinity and the kinetic parameters for antigen binding of test antibodies. The binding kinetics were evaluated by surface plasmon resonance using Biacore 8K (GE Healthcare). A Biotin CAP sensor chip was used to capture the biotinylated antigens. […] Multi-cycle kinetics was employed where each analyte concentration was injected in a separate cycle and the sensor chip surface was regenerated after each cycle. All the assays were carried out in freshly prepared 1×HBS-EP+buffer (10 mM HEPES, 150 mM NaCl, 3 mM EDTA, 0.05% Tween20, pH 7.4). Data for all the analyte concentrations for each interaction were fit globally to a 1:1 binding model to obtain the kinetic parameters. The Sensorgram for 0 nM analyte concentration was used as reference.

[2] = target: T2, mLTBP3-proTGFβ1 (mouse); experiment: SPR (Biacore), Fab
T2 construct: Murine LLC; also called murine LTBP3-proTGFβ1 complex
Procedure: as §1, §2, §3

[3] = target: T3, mGARP-proTGFβ1 (mouse); experiment: SPR (Biacore), Fab
T3 construct: Murine LLC; also called murine GARP-proTGFβ1 complex
Procedure: as §1, §2, §3

[4] = target: T4, hLRRC33-proTGFβ1 (human, UniProt Q86YC3 19-650; P01137 30-390, limits assumed); experiment: SPR (Biacore), Fab
T4 construct: LLC as m1; Same id used for the cell-surface complex in reporter assays; also called human LRRC33-proTGFβ1 complex; LRRC33-ProTGFb1
T4 sequence (Q86YC3 19-650 limits assumed, chain 1 of 2): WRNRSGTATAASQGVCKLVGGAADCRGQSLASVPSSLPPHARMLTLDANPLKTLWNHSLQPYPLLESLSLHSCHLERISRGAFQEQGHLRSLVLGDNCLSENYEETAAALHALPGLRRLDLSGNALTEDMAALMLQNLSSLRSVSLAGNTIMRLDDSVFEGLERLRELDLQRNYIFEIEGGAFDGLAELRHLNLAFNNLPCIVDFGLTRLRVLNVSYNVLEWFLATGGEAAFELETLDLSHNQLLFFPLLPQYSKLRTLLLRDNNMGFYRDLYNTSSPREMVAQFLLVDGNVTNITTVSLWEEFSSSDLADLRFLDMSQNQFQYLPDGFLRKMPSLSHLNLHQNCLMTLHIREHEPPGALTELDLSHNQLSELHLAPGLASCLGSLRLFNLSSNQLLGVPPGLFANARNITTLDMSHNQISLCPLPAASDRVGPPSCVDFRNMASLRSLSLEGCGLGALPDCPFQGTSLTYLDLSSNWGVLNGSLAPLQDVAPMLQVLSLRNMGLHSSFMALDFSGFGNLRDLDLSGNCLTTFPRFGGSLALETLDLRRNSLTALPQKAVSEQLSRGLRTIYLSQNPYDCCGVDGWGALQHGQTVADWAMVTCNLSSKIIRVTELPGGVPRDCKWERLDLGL
T4 sequence (P01137 30-390 limits assumed, chain 2 of 2): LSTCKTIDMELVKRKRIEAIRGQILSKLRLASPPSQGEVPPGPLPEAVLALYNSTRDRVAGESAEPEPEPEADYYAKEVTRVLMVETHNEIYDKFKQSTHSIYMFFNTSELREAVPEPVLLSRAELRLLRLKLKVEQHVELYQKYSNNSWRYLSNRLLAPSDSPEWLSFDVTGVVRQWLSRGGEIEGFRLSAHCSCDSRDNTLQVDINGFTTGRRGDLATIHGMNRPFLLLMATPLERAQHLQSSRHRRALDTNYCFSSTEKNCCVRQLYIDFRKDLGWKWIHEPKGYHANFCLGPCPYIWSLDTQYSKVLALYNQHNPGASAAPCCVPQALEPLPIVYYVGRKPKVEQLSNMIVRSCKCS

[5] = target: endogenous LTBP-proTGFβ1 of human LN229 cells (human, UniProt P01137 30-390); experiment: cell-based or functional assay
Sequence of endogenous LTBP-proTGFβ1 of human LN229 cells (P01137 30-390): as the sequence (P01137 30-390 limits assumed, chain 2 of 2) above

[6] = target: T5, hLTBP1-proTGFβ1 (human, UniProt Q14766 347-1721; P01137 30-390, limits assumed); experiment: SPR (Biacore), Fab; affinity relative to Ref
T5 construct: Large latent complex (LLC): proTGFβ1 dimer disulfide-linked to one presenting molecule; recombinant, purified, biotinylated in BLI/SPR; The same id is used for the complex made by transfected cells in the reporter assays; also called human LTBP1-proTGFβ1 complex; LTBP1-ProTGFb1
T5 sequence (Q14766 347-1721 limits assumed, chain 1 of 2): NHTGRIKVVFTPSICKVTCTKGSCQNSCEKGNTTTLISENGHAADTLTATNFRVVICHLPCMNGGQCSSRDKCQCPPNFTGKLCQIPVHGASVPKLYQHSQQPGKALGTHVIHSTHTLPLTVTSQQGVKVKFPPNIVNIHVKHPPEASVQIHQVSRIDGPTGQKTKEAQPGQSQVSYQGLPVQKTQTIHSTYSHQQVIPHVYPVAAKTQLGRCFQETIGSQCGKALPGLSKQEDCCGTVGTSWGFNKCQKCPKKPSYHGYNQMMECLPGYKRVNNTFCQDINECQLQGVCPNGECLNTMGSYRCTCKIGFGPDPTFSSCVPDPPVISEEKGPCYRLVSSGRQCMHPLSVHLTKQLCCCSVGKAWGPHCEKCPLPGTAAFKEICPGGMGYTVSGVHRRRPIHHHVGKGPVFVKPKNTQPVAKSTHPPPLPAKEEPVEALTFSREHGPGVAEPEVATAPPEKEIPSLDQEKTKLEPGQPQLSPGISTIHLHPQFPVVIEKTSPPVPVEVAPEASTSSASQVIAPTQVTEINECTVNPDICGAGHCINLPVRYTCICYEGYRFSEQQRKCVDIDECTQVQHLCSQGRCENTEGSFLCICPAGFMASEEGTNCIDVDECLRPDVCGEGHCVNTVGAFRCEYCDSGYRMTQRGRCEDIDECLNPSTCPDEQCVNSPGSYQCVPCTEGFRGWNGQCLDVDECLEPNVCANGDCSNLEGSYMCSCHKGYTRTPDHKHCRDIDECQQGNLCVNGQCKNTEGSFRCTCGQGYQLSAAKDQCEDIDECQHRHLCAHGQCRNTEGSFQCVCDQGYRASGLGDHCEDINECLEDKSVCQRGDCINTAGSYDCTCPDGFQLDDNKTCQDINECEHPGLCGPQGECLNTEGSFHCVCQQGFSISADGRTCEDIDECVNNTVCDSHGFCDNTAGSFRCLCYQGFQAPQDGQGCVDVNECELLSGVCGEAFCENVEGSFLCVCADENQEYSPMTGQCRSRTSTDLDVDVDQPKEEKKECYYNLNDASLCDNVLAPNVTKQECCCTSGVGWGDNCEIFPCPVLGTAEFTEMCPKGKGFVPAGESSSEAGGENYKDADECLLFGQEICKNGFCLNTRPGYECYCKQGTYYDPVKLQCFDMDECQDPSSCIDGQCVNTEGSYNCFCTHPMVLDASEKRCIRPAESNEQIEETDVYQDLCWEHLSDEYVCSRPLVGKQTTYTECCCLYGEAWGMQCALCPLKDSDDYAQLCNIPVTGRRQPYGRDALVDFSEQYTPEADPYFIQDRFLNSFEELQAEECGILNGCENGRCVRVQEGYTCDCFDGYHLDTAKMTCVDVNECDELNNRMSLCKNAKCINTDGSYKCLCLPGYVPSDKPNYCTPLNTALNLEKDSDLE
T5 sequence (P01137 30-390 limits assumed, chain 2 of 2): as the sequence (P01137 30-390 limits assumed, chain 2 of 2) above
Procedure: as §1, §2, §3

[7] = target: T6, hLTBP3-proTGFβ1 (human, UniProt Q9NS15 44-1303; P01137 30-390, limits assumed); experiment: SPR (Biacore), Fab; affinity relative to Ref
T6 construct: LLC as m1; Same id used for the cell-made complex in reporter assays; also called human LTBP3-proTGFβ1 complex; LTBP3-ProTGFb1
T6 sequence (Q9NS15 44-1303 limits assumed, chain 1 of 2): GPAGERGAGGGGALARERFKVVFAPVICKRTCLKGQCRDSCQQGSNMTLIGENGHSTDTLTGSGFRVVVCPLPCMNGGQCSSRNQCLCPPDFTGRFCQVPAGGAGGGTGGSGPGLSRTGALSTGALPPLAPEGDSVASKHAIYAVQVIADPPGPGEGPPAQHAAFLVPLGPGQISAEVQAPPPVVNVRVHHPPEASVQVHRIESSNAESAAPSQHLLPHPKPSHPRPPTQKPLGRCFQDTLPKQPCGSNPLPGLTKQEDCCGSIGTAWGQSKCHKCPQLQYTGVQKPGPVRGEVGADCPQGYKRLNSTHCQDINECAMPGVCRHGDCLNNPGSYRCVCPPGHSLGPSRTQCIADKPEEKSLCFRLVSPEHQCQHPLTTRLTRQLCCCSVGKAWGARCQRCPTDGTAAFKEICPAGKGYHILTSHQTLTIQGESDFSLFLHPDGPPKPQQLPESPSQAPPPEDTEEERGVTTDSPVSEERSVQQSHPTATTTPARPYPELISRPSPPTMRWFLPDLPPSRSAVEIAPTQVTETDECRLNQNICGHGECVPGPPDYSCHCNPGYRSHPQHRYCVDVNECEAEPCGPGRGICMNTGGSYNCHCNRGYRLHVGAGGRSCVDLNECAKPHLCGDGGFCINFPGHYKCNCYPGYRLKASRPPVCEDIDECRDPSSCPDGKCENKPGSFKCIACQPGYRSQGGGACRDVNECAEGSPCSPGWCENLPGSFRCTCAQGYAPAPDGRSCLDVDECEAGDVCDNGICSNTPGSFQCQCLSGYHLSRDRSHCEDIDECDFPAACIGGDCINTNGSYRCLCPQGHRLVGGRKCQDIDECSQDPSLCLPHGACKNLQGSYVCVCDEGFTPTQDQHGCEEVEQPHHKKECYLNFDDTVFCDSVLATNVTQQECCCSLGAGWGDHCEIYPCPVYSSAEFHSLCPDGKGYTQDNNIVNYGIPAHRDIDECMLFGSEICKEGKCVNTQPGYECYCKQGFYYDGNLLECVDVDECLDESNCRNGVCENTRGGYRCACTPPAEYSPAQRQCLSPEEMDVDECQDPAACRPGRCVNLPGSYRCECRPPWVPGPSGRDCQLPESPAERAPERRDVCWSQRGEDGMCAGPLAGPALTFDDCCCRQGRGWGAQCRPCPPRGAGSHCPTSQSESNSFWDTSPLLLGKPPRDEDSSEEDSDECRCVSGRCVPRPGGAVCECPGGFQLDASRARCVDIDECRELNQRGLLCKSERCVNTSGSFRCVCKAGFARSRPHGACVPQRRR
T6 sequence (P01137 30-390 limits assumed, chain 2 of 2): as the sequence (P01137 30-390 limits assumed, chain 2 of 2) above
Procedure: as §1, §2, §3

[8] = target: T1, hGARP-proTGFβ1; experiment: SPR (Biacore), Fab; affinity relative to Ref
Procedure: as §1, §2, §3

[9] = target: T7, mLTBP1-proTGFβ1 (mouse); experiment: SPR (Biacore), Fab; affinity relative to Ref
T7 construct: Murine LLC; also called murine LTBP1-proTGFβ1 complex
Procedure: as §1, §2, §3

[10] = target: T2, mLTBP3-proTGFβ1; experiment: SPR (Biacore), Fab; affinity relative to Ref
Procedure: as §1, §2, §3

[11] = target: mLRRC33-proTGFβ1 (murine, UniProt Q8BMT4 20-651); experiment: SPR (Biacore), Fab; affinity relative to Ref
Sequence of mLRRC33-proTGFβ1 (Q8BMT4 20-651): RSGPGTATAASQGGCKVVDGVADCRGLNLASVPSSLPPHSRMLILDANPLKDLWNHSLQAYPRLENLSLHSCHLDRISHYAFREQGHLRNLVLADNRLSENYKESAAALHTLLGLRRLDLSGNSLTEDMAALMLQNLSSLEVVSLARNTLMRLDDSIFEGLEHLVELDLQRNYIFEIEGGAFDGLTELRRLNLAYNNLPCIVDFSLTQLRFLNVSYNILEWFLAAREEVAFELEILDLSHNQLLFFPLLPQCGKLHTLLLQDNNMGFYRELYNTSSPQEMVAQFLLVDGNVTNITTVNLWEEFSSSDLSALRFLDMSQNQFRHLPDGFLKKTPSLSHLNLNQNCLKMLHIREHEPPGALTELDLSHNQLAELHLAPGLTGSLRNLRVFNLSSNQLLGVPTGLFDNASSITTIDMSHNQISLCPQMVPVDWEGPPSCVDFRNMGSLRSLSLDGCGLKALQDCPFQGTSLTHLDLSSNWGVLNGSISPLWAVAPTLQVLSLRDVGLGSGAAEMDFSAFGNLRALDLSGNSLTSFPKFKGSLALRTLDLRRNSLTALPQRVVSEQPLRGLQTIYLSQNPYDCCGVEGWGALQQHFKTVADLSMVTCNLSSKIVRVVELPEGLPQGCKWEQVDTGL

[12] = target: T5, hLTBP1-proTGFβ1; experiment: SPR (Biacore 8K), biotinylated antigen captured, Fab as analyte
Procedure: as §3
(§4) The binding kinetics of antibody interactions with each of the antigen complexes, human LTBP1-ProTGFb1, human LTBP3-ProTGFb1, human GARP-ProTGFb1, and human LRRC33-ProTGFb1, were evaluated by surface plasmon resonance. Binding kinetics was evaluated by surface plasmon resonance using a BIACORE® 8K (GE) instrument. Biotinylated antigens were captured on a Biotin CAP chip and the Fab fragments of the antibodies were used as analytes. Sensorgrams for Fab binding at variable concentrations (0.6-10 nM) were globally fit to obtain the kinetic parameters.
(§5) Binding kinetics for the Fabs were evaluated against each of the four human antigens, LTBP1-ProTGFb1, LTBP3-ProTGFb1, GARP-ProTGFb1, and LRRC33-ProTGFb1. […] These experiments were repeated.

[13] = target: T6, hLTBP3-proTGFβ1; experiment: as above
Procedure: as §3, §4, §5

[14] = target: T1, hGARP-proTGFβ1; experiment: as above
Procedure: as §3, §4, §5

[15] = target: T4, hLRRC33-proTGFβ1; experiment: as above
Procedure: as §3, §4, §5

T1 sequence (Q14392 18-627 limits assumed, chain 1 of 2): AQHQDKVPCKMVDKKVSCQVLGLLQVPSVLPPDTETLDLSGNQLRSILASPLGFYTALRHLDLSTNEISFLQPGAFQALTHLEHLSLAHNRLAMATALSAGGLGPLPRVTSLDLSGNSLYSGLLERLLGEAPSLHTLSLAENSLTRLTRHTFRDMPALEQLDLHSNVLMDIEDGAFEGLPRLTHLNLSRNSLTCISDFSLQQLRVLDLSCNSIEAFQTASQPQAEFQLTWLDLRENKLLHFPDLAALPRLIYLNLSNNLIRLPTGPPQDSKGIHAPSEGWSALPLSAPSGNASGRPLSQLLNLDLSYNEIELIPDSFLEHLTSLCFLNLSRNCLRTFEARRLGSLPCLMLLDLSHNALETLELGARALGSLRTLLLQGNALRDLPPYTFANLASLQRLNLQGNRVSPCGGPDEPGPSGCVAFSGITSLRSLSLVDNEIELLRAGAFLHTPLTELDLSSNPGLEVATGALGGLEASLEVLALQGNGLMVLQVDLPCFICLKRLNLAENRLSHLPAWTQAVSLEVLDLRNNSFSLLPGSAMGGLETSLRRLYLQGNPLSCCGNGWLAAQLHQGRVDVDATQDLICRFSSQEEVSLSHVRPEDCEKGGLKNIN
T1 sequence (P01137 30-390 limits assumed, chain 2 of 2): as the sequence (P01137 30-390 limits assumed, chain 2 of 2) above

B1: Ab46 Fab (Fab, V domains shown)
VH: EVQLLESGGGLVQPGGSLRLSCAASGFTFADYAMTWVRQAPGKGLEWVSAISGSGAATYFADSVKGRFTISRDNSKNTLYLQMNSLRAEDTAVYYCARVSSGHWDYDYWGQGTLVTVSS
VL: DIQLTQSPSSLSASVGDRVTITCRASQSISSYLNWYQQKPGKAPKLLIYAASGLESGVPSRFSGSGSGTDFTLTISSLQPEDFATYYCQQTYGVPLTFGGGTKVEIK
notes: Fab fragment
How did the Kd [1] turn out when B1 was run?
The Kd was 0.23 nM.

And the koff [1]?
The koff was 0.000222 s⁻¹.

What about the kon [1] of the same binder?
The kon was 965000 M⁻¹ s⁻¹.

What about the Kd [2] of the same binder?
The Kd was 0.0956 nM.

And the koff [2]?
Its koff is 0.000115 s⁻¹.

What about the kon [2] of the same binder?
The kon was 1.2e+06 M⁻¹ s⁻¹.

What about the Kd [3] of the same binder?
Its Kd is 0.274 nM.

What about the koff [3] of the same binder?
The koff was 0.000278 s⁻¹.

What about the kon [3] of the same binder?
Its kon is 1.02e+06 M⁻¹ s⁻¹.

And the Kd [4]?
The Kd was 0.0841 nM.

And the koff [4]?
The koff was 0.000128 s⁻¹.

What about the kon [4] of the same binder?
Its kon is 1.52e+06 M⁻¹ s⁻¹.

And the “fAb IC50” value [5]?
The value was 0.723 nM.

And the Fold difference [6]?
The Fold difference was 134 fold.

What about the Fold difference [7] of the same binder?
Its Fold difference is 72 fold.

And the Fold difference [8]?
The Fold difference was 53 fold.

And the Fold difference [9]?
Its Fold difference is 123 fold.

What about the Fold difference [10] of the same binder?
Its Fold difference is 91 fold.

What about the Fold difference [11] of the same binder?
The Fold difference was 95 fold.

And the Kd [12]?
Its Kd is 0.035 nM.

What about the koff [12] of the same binder?
The koff was 8.52e-05 s⁻¹.

And the kon [12]?
Its kon is 2.44e+06 M⁻¹ s⁻¹.

And the Kd [13]?
Its Kd is 0.109 nM.

What about the koff [13] of the same binder?
Its koff is 0.000195 s⁻¹.

What about the kon [13] of the same binder?
The kon was 1.78e+06 M⁻¹ s⁻¹.

And the Kd [14]?
The Kd was 0.19 nM.

And the koff [14]?
The koff was 0.000359 s⁻¹.

And the kon [14]?
The kon was 1.89e+06 M⁻¹ s⁻¹.

And the Kd [15]?
Its Kd is 0.119 nM.

And the koff [15]?
Its koff is 0.000162 s⁻¹.

And the kon [15]?
Its kon is 1.36e+06 M⁻¹ s⁻¹.
